Experimental data from US20090010911A1, “METHODS AND COMPOSITIONS FOR AFFECTING CYCLOPHILIN A REGULATION OF KINASES IN MODULATING CELLULAR ACTIVITIES” (IOWA STATE UNIVERSITY RESEARCH FOUNDATION, INC., priority 2007, published 2009).

Key:
Itk LKD enzyme = target: T1, Itk LKD enzyme (Mus musculus, UniProt Q03526); assay: Quantitative kinase assay, Km determination for Peptide B and PLCγ1 SH2C-Peptide B fusion; format: biochemical; conditions: phosphorylation by Itk LKD enzyme 0.9 μM, 200 μM ATP, room temperature
T1 construct: linker kinase domain (Itk LKD); made in house; host or cells: Sf9 insect cells (baculovirus), co-infected 1:1 with Lck baculovirus
T1 sequence (Q03526 344-625 limits assumed): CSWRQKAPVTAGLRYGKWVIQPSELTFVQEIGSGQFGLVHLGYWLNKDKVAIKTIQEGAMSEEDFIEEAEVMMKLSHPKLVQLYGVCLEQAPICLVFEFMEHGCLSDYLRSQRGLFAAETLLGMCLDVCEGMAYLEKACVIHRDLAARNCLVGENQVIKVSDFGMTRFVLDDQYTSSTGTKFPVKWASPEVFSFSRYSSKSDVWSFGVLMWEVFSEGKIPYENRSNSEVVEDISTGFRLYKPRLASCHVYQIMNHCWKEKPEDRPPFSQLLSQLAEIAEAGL
From the text: 5(a) Construction of a PLCγ1 SH2C-Peptide B fusion protein was based on alignment of Y783 within the PLCγ1 linker and the Tyr of Peptide B. The 14 amino acids of Peptide B were used to replace the last 16 amino acids of PLCγ1 SH2C-Y783-. The Tyr that is phosphorylated in each substrate is boxed. A mutant construct is also shown that contains serine in place of the tyrosine of peptide B. This site was mutated to serine instead of phenylalanine due to solubility problems associated with the Tyr to Phe mutation. 5(b) FLAG-tagged Itk LKD enzyme (1 μM) was incubated with 20 μM of the PLCγ1 SH2C-Peptide B fusion protein (lane 4) or 20 μM of the PLCγ1 SH2C-Peptide B(YS) mutant protein (lane 5) in an in vitro kinase assay. Lanes 1-3 are Itk enzyme alone, PLCγ1 SH2C-Peptide B substrate alone and PLCγ1 SH2C-Peptide B(YS) substrate alone, respectively, that have each been subjected to the same in vitro kinase assay conditions. (c & d) FLAG-tagged Itk LKD enzyme was incubated with increasing amounts of biotinylated PLCγ1 SH2C-Peptide B 5(c) or biotinylated Peptide B alone 5(d) in an in vitro kinase assay. 5(e) Kinetic parameters describing phosphorylation of Peptide B and the PLCγ1 SH2C-Peptide B fusion protein by Itk. Data shown are the average of two independent experiments. […]

Itk full-length enzyme [1] = target: T2, Itk full-length enzyme (Mus musculus, UniProt Q03526); assay: In vitro kinase assay with western blotting, phosphorylation of SH2 domain-containing substrates with added free SH2 domain or CypA; format: biochemical
T2 construct: Full-length Itk, Btk and Tec and the Itk kinase domain fragments were PCR amplified; made in house; host or cells: Sf9 insect cells (baculovirus), co-infected 1:1 with Lck baculovirus
T2 sequence (Q03526 1-625): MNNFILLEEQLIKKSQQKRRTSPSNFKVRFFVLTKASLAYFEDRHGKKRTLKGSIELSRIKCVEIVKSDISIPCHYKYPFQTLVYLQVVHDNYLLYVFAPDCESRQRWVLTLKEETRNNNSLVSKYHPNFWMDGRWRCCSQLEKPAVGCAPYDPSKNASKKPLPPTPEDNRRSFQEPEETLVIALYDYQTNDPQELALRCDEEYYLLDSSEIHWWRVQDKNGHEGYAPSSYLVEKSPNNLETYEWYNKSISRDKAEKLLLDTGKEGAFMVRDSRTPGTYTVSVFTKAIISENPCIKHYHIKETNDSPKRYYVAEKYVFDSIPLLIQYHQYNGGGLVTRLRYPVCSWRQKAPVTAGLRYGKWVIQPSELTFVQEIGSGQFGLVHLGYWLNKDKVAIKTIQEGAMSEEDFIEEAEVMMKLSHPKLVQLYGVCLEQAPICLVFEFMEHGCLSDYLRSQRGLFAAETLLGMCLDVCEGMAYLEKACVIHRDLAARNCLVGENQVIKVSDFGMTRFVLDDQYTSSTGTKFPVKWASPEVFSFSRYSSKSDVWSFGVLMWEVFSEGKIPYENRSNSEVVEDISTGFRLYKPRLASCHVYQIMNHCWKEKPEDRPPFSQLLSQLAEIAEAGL
Description: Substrate used in each experiment is indicated above each set of blots. 4(a) (left) Itk 32 substrate was incubated with Itk full-length enzyme as before (lane 1), or with Itk 32 domain:free Itk SH2 domain in ratios of 1:10, 1:25 or 1:50 (lanes 2-4, respectively) or equivalent ratios of PI3K N-terminal SH2 domain (lanes 5-7) and subjected to an in vitro kinase assay. […] Coomassie stain and an anti-FLAG blot (bottom panels) show protein levels. (right) The PLCγ1 SH2 domain competes with the PLCγ1 substrate in a similar manner. Lane 1 contains only Itk enzyme and PLCγ1 SH2C-Y783-substrate without additional free SH2 domain. Ratios of free SH2 domain to substrate are 1:5, 1:10 or 1:50 in lanes 2-4, respectively and equivalent ratios of PI3K SH2 domain are used in lanes 5-7. Coomassie stain of the gel and an anti-Itk blot (bottom panels) show protein levels. 4(b) Same experiment as shown in (a) using the Grb2 SH2 domain as a control. (left) Itk 32 substrate was incubated with Itk full-length enzyme (lane 1), or with Itk 32 domain:free Itk SH2 domain in ratios of 1:10 and 1:25 (lanes 2 & 3) or equivalent ratios of Grb2 SH2 domain (lanes 4 & 5) and subjected to an in vitro kinase assay. (right) Identical experiment following PLCγ1 substrate phosphorylation in the presence of the PLCγ1 and Grb2 SH2 domains. Lane 1 is PLCγ1 substrate alone; lanes 2 & 3 are PLCγ1 substrate:PLCγ1 SH2 domain in a 1:10 and 1:25 ratio, respectively and lanes 4 & 5 are identical ratios of PLCγ1 substrate:Grb2 SH2 domain. 4(c) The Itk SH2 domain competes with autophosphorylation of Y180 within full length Itk. For lanes 2-4, the amount of free SH2 domain is the same as used in panel (a), lanes 2-4. No exogenous SH2 domain has been added in lane 1 and full length Itk is both the enzyme and the substrate. Coomassie stain and an anti-FLAG blot (bottom panels) show protein levels. […] Initial velocities are shown for phosphorylation of peptide B (sequence shown in FIG. 5a) by full length Itk in the absence (column 1) and presence (column 2 and 3) of Itk SH2 domain. […]

full length Itk = target: T3, full length Itk (Mus musculus, UniProt Q03526); assay: In vitro Itk kinase assay using Peptide B as the substrate (initial velocities); format: biochemical; conditions: CypA to Itk 0 to 100 times excess; Itk 100 and 600 nM
T3 construct: made in house; host or cells: Sf9 insect cells (baculovirus), co-infected 1:1 with Lck baculovirus
T3 sequence (Q03526 1-625): T2 sequence (Q03526 1-625)
Description: Substrate used in each experiment is indicated above each set of blots. 4(a) (left) Itk 32 substrate was incubated with Itk full-length enzyme as before (lane 1), or with Itk 32 domain:free Itk SH2 domain in ratios of 1:10, 1:25 or 1:50 (lanes 2-4, respectively) or equivalent ratios of PI3K N-terminal SH2 domain (lanes 5-7) and subjected to an in vitro kinase assay. […] Coomassie stain and an anti-FLAG blot (bottom panels) show protein levels. (right) The PLCγ1 SH2 domain competes with the PLCγ1 substrate in a similar manner. Lane 1 contains only Itk enzyme and PLCγ1 SH2C-Y783-substrate without additional free SH2 domain. Ratios of free SH2 domain to substrate are 1:5, 1:10 or 1:50 in lanes 2-4, respectively and equivalent ratios of PI3K SH2 domain are used in lanes 5-7. Coomassie stain of the gel and an anti-Itk blot (bottom panels) show protein levels. 4(b) Same experiment as shown in (a) using the Grb2 SH2 domain as a control. (left) Itk 32 substrate was incubated with Itk full-length enzyme (lane 1), or with Itk 32 domain:free Itk SH2 domain in ratios of 1:10 and 1:25 (lanes 2 & 3) or equivalent ratios of Grb2 SH2 domain (lanes 4 & 5) and subjected to an in vitro kinase assay. […]
The ratio of CypA to Itk varied between o and 100 times excess CypA. […] No change in Peptide B phosphorylation is detected. […]

Itk = target: T4, Itk (Mus musculus, UniProt Q03526); assay: Pull-down experiment using purified Itk and purified CypA; format: binding; conditions: full length Itk or kinase domain alone immobilized on beads
T4 construct: Full-length Itk, Btk and Tec and the Itk kinase domain fragments were PCR amplified; made in house; host or cells: Sf9 insect cells (baculovirus), co-infected 1:1 with Lck baculovirus
T4 sequence (Q03526 1-625): T2 sequence (Q03526 1-625)
Description: In FIG. 16 full length Itk is immobilized on beads that are incubated with CypA. In FIG. 17 the kinase domain alone is immobilized on beads and incubated with CypA. […] The kinase domain alone contains the substrate docking site and so it is likely that CypA interacts with the Itk kinase domain in a manner that either completely or partially occludes the SH2 docking site.

Itk full-length enzyme [2] = target: T2, Itk full-length enzyme; conditions: published data (Brazin et al. 2002); cited from earlier work

Substance: Aminohexanoyl biotin-EQEDEPEGIYGVLF-NH2 [Peptide B, reference compound]
- Km (Itk LKD enzyme): 87 µM

Substance: CypA: peptidyl-prolyl isomerase Cyclophilin A, target of the immunosuppressive drug cyclosporin A
- effect on phosphorylation of Itk SH3-SH2 protein substrate (Y180) (Itk full-length enzyme [1]; CypA:Itk 32 ratios 0.1:1, 1:1, 10:1, 25:1, signal reduced at 10:1 and 25:1): reduce phosphorylation
- effect on phosphorylation kinetics of Peptide B (full length Itk): no effect
- interaction with Itk (pull-down) (Itk): interacts directly with Itk
- effect on autophosphorylation of Itk in an in vitro kinase assay (Itk full-length enzyme [2]): reduces autophosphorylation of Itk

Substance: Grb2 SH2 domain: Grb2 SH2 domain, control SH2 domain [reference compound]
- inhibition of PLCγ1 SH2C-Y783- substrate phosphorylation by free SH2 domain (Itk full-length enzyme [1]; substrate:free SH2 domain ratios 1:5 to 1:50): do not inhibit
- inhibition of Itk 32 substrate phosphorylation (Y180) by free SH2 domain (Itk full-length enzyme [1]; substrate:free SH2 domain ratios 1:10, 1:25, 1:50): do not inhibit
